From patent publication US20180346526 come the findings set out here.

The target of this series is T1, YydF18-49, truncated form of YydF with residues 18 to 49.
T1 chain: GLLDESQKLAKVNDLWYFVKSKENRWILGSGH

Numbering of substitutions follows the chain as printed. Names and notes keep the numbering of the source.

B1: YydG C223A mutant (protein)
chain: MYNKTVSINLDSRCNASCDHCCFSSSPTSTTRMEKEYIRELVTEFAKNKTIQVISFTGGEVFLDYKFLKELMEIIKPYEKQITLISNGFWGLSKKKVQEYFHDMNSLNVIALTISYDEYHAPFVKSSSIKNILEHSRKYPDIDISLNMAVTKDKMSNHILEELGDSILGVKITKFPMISVGAAKTRIKQENIHKFYSLEDEDSLHCPGYDIVYHHDGEIYPCASPAIFETKITLREEYNQSFERTVEKLNSNLLLFILRKEGFKWFLNILKENNKIEEFDIPYEFSSICGVCGSLFNSAEKINYFYPYMEKYYNENFKV
B1: the “epimerization activity on the peptide substrate (HPLC, LC-MS)” value is recorded as “The C223A mutation did not either prevent the epimerization activity”.

B2: YydG, radical SAM epimerase of Bacillus subtilis (wild type) (protein)
chain: B1 chain with A223C
Regarding B2, the “Peptide 3*/Peptide 3 ratio relative to Peptide 2*/Peptide 2 ratio (tryptic peptide mapping)” value is “the Peptide 3*/Peptide 3 ratio was 5 times larger than the Peptide 2*/Peptide 2 ratio”, the “epimerization of Ile residues” value is reported as “up to ˜35% of the Ile”, the “epimerization of Val residues” value is reported as “˜10% of Val residues” and the “formation of epimerized peptide derivatives (HPLC)” value is “YydF18-49 proved to be a better substrate”. The “moles of 5'-dA produced per mole of modified product” value was “YydG produced one mole of 5′-dA per mole of modified product”.

B3: YydG A3 mutant (AxxxAxxA) (protein)
chain: B1 chain with C14A, C18A, C21A, A223C
Consider B3, for which the “conversion of the peptide substrate and SAM cleavage (HPLC)” value was “the A3 mutant was unable to convert the peptide substrate and to cleave SAM”.

B4: YydG C222A mutant (protein)
chain: B1 chain with C222A, A223C
In the case of B4, the “enzyme activity on the peptide substrate (HPLC)” value was “The C222A mutant was also totally impaired for enzyme activity”.

B5: YydG C22A mutant (protein)
chain: B1 chain with C22A, A223C
Take B5: the “enzyme activity on the peptide substrate (HPLC)” value was “the C22A mutation did not affect the activity of the enzyme and the three epimerized peptides were produced”.
